{"source": "patent US20230392126A1", "about": "“TISSUE ORGANOIDS” (priority 2016, published 2023)", "molecules": {"B1": {"name": "hBChE: modified human butyrylcholinesterase (E30-6, SEQ ID NO: 41), cocaine hydrolase, expressed from engineered epidermal cells / skin grafts (protein)", "chain": "MHSKVTIICIRFLFWFLLLCMLIGKSHTEDDIIIATKNGKVRGMNLTVFGGTVTAFLGIPYAQPPLGRLRFKKPQSLTKWSDIWNATKYANSCCQNIDQSFPGFHGSEMWNPNTDLSEDCLYLNVWIPAPKPKNATVLIWIYGGGFQTGTSSLHVYDGKFLARVERVIVVSMNYRVGALGFLALPGNPEAPGNMGLFDQQLALQWVQKNIAAFGGNPKSVTLFGESSGAASVSLHLLSPGSHSLFTRAILQSGSANAPWAVTSLYEARNRTLNLAKLTGCSRENETEIIKCLRNKDPQEILLNEAFVVPYGTALGVNFGPTVDGDFLTDMPDILLELGQFKKTQILVGVNKDEGTWFLVGGAPGFSKDNNSIITRKEFQEGLKIFFPGVSEFGKESILFHYTDWVDDQRPENYREALGDVVGDYNFICPALEFTKKFSEWGNNAFFYYFEHRSSKLPWPEWMGVMHGYEIEFVFGLPLERRDNYTKAEEILSRSIVKRWANFAKYGNPNETQNNSTSWPVFKSTEQKYLTLNTESTRIMTKLRAQQCRFWTSFFPKVLEMTGNIDEAEWEWKAGFHRWNNYMMDWKNQFNDYTSKKESCVGL", "modifications": "Human mutant BChE"}}, "key": {"[1]": {"experiment": "Extinction and cocaine-induced reinstatement of CPP", "assay_type": "in vivo, mouse", "conditions": "grafted after CPP acquisition; priming 15 mg/kg cocaine", "description": "Extinction and reinstatement of CPP: Following CPP acquisition, mice underwent extinction, in which the procedure was identical to that in the test day. In each extinction day, mice were allowed to explore the entire chambers for 20 min and time spent in each area was recorded. Extinction was performed until the CPP decreased to a level that was not different from that of the pretest in consecutive two days. On the following day of the last extinction, mice underwent reinstatement procedures, in which mice that were trained for cocaine CPP received an i.p. injection of 15 mg/kg cocaine, and mice that were trained for ethanol CPP received an i.p. injection of 1 g/kg ethanol. Immediate after injection, mice were allowed to explore the entire chambers for 20 min and time spent in each area was recorded.\nSpecific methods: One group of GhBChE and one group of GWT mice (n=9 in each group) were trained for cocaine CPP 7 days after engraftment (FIG. 18A). Mice underwent pretest on Day 1, four days of cocaine conditioning day 2 to Day 5, and CPP test on Day 6. One group of GhBChE and one group of GWT mice (n=8 in each group) were trained for ethanol CPP 7 days after engraftment (FIG. 18B). Mice underwent pretest on Day 1, four ethanol conditioning day 2 to Day 5, and CPP test on Day 6. […]"}, "[2]": {"system": "mouse epidermal stem cells", "experiment": "Cell proliferation and differentiation of engineered mouse epidermal cells in vitro (cell cycle FACS, calcium shift western blot)", "assay_type": "cell-based", "description": "Primary human neonatal epidermal keratinocytes were obtained from Thermo Fischer® (C0015C), and cultured with Epilife® medium (Thermo Fischer, M-EPICF-500) with manufacturer's recommended procedures. Calcium shift was performed to induce differentiation of primary keratinocytes by increasing the calcium concentration in culture media to 1.5 mM.\nPropidium iodide (PI) staining followed by flow cytometry were used to determine the effect of cell cycle profiles. Mouse and human epidermal cells were cultured in two 6 cm cell culture dish for 24 hours, respectively. Cells were trypsinized, and 1×10^5 cells from each dish were collected, followed by one PBS wash. […] After staining, the cells were analyzed immediately using flow cytometer BD FACSCanto™ II (BD Biosciences, San Jose, CA) with an excitation wavelength at 488 nm and emission at 585 nm. DNA content and histograms of cell cycle distribution were analyzed using FlowJo™ software, version 10 (FLOWJO LLC, OR).\nWestern blotting was performed as described previously (Blanpain et al.). […] Visualization and quantification was carried out with the LI-COR Odyssey® scanner and software (LI-COR Biosciences).\nPropidium iodide (PI) staining followed by flow cytometry were used to determine the effect of cell cycle profiles. […] DNA content and histograms of cell cycle distribution were analyzed using FlowJo™ software, version 10 (FLOWJO LLC, OR). […]"}}}
{"molecule": "B1", "values": [{"measurement": "cocaine-induced reinstatement of preference", "setting": "[1]", "value": "restored in the GWT mice but not in the GhBChE mice"}, {"measurement": "effect of expression on cell proliferation / differentiation in vitro", "setting": "[2]", "value": "did not significantly change cell proliferation"}]}
